This note sets out measurements from paper PMC10718530.

The target in experiment [1] is MreB from Geobacillus stearothermophilus (MreB^Gs), wild type, 6-histidine-tagged (Geobacillus stearothermophilus ATCC 7953). As to the kind of experiment: negative-stain electron microscopy; standard conditions with the lipid monolayer but without ATP.
The target is the same in experiment [2]. Briefly: negative-stain electron microscopy; standard conditions (2 mM ATP, 100 mM KCl, MreB 1.34 µM) without lipids, in solution; untreated or glow-discharged grids.
Experiment [3] has the same target. As to the kind of experiment: negative-stain electron microscopy; MreB 1.34 µM (0.27-1.34 µM in the concentration series) under a monolayer of E. coli total lipid extract; 20 mM Tris pH 7, 100 mM KCl, 2 mM ATP, 5 mM Mg2+, 1-2 h at 25-37 °C; untreated carbon grids; 12 fields a grid scored for pairs of protofilaments; 2D averaging of 1554 particles.

For the substance “MreB from Geobacillus stearothermophilus (MreB^Gs), wild type, 6-histidine-tagged (natural protein)”, the percent of EM fields with polymers in experiment [1] was 4 % of fields; in experiment [2] it was 8 % of fields; in experiment [3], 100 % of fields. In experiment [3], the critical concentration of polymerization came out at 0.45 µM.
